According to patent US6896881:

Tests used:
[1] = molecular target: human IGF1 receptor on 3T3-hIGF1r cells (human) (UniProt P08069); test: flow cytometry on 3T3-hIGF1r cells; 5.7 is the secondary antibody alone
[2] = molecular target: human EGF receptor on CHO-hEGFr cells (human) (UniProt P00533); test: flow cytometry on CHO-hEGFr cells; 3.9 is the secondary antibody alone

Sequence of UniProt P08069 (P08069 31-1367): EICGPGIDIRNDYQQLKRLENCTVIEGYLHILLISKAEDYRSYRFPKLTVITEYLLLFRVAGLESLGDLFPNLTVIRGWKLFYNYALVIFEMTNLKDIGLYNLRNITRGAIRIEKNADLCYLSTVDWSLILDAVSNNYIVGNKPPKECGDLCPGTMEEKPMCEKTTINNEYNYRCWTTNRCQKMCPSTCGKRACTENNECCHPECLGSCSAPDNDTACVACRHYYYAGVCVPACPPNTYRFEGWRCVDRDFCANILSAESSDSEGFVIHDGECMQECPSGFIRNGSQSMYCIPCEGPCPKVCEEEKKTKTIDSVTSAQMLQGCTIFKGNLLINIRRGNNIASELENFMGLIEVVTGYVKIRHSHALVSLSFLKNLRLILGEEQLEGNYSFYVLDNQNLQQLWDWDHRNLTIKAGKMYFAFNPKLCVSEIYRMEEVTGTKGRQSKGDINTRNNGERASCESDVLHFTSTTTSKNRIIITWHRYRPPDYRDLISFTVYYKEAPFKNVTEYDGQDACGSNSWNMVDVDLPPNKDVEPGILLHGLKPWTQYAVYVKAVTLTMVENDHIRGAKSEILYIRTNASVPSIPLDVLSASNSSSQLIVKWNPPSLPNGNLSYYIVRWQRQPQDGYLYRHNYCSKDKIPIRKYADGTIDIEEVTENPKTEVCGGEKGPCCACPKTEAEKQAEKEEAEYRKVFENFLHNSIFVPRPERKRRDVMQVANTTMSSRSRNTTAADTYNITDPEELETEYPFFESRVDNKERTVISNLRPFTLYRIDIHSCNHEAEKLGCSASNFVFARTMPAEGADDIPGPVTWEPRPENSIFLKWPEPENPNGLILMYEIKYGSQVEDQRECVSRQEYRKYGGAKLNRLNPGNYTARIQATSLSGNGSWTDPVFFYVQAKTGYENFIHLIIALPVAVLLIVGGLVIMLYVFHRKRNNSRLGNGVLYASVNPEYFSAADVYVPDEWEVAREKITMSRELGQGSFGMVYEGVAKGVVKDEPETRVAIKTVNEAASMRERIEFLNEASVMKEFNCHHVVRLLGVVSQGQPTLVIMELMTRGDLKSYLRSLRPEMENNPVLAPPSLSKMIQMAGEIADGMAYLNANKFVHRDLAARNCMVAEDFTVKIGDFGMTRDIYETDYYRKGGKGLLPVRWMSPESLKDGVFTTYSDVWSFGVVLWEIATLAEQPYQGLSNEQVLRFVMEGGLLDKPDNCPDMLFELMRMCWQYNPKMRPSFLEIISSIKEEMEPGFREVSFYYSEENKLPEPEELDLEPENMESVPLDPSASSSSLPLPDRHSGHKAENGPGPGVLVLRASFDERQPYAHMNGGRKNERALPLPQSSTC

## monoclonal anti-hIGF1r antibody clone 33255.111 (R&D Systems, MAB391)
[1]
  mean fluorescence: 251

## monoclonal anti-hEGFr antibody clone 528 (Santa Cruz, sc-120)
[2]
  mean fluorescence: 466
